Experimental data taken from patent publication US20260209373A1 (TIANJIN MEDICAL UNIVERSITY GENERAL HOSPITAL, published 2026).

T1: human BAFFR on HEK-293T-BAFFR cells (human, UniProt Q96RJ3 1-184)
T1 sequence: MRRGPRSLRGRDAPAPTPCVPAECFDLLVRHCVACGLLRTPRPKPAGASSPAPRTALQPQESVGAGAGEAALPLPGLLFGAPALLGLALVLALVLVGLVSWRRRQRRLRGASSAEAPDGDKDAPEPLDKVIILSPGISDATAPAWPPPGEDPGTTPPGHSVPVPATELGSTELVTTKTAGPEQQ

T2: human BAFFR-his protein (Acro, BAR-HP2H6) (human, UniProt Q96RJ3 7-71, limits assumed)
T2 construct: Bought protein; not shown: his tag
T2 sequence: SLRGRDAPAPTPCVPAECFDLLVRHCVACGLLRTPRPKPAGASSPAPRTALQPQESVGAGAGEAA

B1: NB467-8 (Fc fusion)
chain: QVQLVESGGGLVQPGGSLRLSCAASGFSLEYYAIGWFRHIPGKEREAVSCISSPGDSTWYVDSVKGRFTISRDNAKNTVYLQMNSLKPEDTAVYHCAADVYYSGSYLSRSCNPHESKYWGQGTQVTVSS
notes: also called nanobody NB467-8; anti-BAFFR nanobody; not shown: Human IgG1 Fc fused to the VHH
B2: NB467-46 (Fc fusion)
chain: EVQVVESGGGLVQPGGSLRLSCAASGFSLTYYAIGWFRQAPGKEREGVACISGGGDQLYYTDSVKGRFTISRDNAKNTVYLHMNSLKPEDTAVYYCAADVYYSGSYNYRSCNPAESKYWGQGTQVTVSS
notes: also called nanobody NB467-46; anti-BAFFR nanobody; not shown: Human IgG1 Fc fused to the VHH
B3: NB467-35 (Fc fusion)
chain: QVQLVESGGGLVQPGGSLRLSCAASGFSLEYYAIGWFRQTPGKEREAISCIDSPAKSTYYADSVKGRFTISRDNSKNTVYLQMNSLKAEDTAVYYCAADVYYRGSYLYRSCNPTESKYWGQGTQVTVSS
notes: also called nanobody NB467-35; anti-BAFFR nanobody; not shown: Human IgG1 Fc fused to the VHH
B4: NB467-55 (Fc fusion)
chain: EVQVVESGGDLVQPGGSLKLSCQASGFSLTYYAIGWFRQAPGKEREEISCISGDGGMTYYADPVKGRFTISRDNGRNTVYLQMNSLKPEDTAVYYCAADVYYNGNYYSRSCNPAESKYWGQGTQVTVSA
notes: also called nanobody NB467-55; anti-BAFFR nanobody; not shown: Human IgG1 Fc fused to the VHH

Legend:
[1] = target: T1, human BAFFR on HEK-293T-BAFFR cells; assay: cell-based or functional assay
[2] = target: T1, human BAFFR on HEK-293T-BAFFR cells; assay: flow cytometry on HEK-293T-BAFFR cells, anti-human Fc-647 secondary
Experimental: The cells were resuspended in a suitable volume of staining solution for flow cytometry, so that the final cell concentration per tube reached 2×10⁵ cells/mL.
The antibodies NB467-55, NB467-46, NB467-35, and NB467-8 produced in Example 1, and Lanalumab were respectively diluted to 200 nM. […] After incubation, the cells were washed once with a FACS buffer.
The anti-human FC-647 secondary antibody (Jackson, 109-605-003) was diluted according to the instructions, and 100 μl of the diluted secondary antibody was added to a sample tube. After uniform mixing, the system was incubated at 4° C. for 60 min. After incubation, the cells were washed 3 times with FACS, and the cell precipitate obtained by centrifugation was resuspended in 200 μl of PBS and detected by flow cytometry (Sony, SA3800).

[3] = target: human BAFFR-his protein (Acro, BAR-HP2H6) (human) (UniProt Q96RJ3); assay: competition ELISA; plate-coated human BAFFR-his, competitor biotin human BAFF his at 0.2 ug/mL
[4] = target: T2, human BAFFR-his protein (Acro, …); assay: as above
Experimental: Specifically, human BAFFR-his protein (Acro, BAR-HP2H6) was added to a 96-well microplate at 200 ng/well and incubated at 4° C. overnight. On the following day, the plate was washed 3 times with PBST. Then the plate was blocked with 5% w/v skim milk in PBST at 37° C. for 1 h, and then washed with PBS.
The antibody to be tested was 1:3 diluted over gradients from a concentration of 800 nM (diluted with 5% skim milk). Biotin Human BAFF his protein (Acro, BAF-H82Q2) was diluted to 0.2 μg/mL. Control group: 50 μL of diluted Biotin Human BAFF his protein and 50 μL of 5% milk. Experimental group: 50 μL of diluted Biotin Human BAFF his protein and 50 μL of antibody diluted over gradients.
Then, the antibody/Biotin Human BAFF his mixture was added to a plate coated with Human BAFFR-his protein, and incubated at 37° C. for 1 h. The plate was washed 5 times with PBST. The secondary antibody (Chengdu NBbiolab Biotechnology Co., Ltd.) 1:10K diluted with a blocking solution was added and incubate at 37° C. for 1 h. The plate incubated with the secondary antibody was washed 5 times with PBST. 100 μl of a TMB monocomponent developing solution was added to each well, and incubated at 37° C. for 7 min. The reaction was terminated with 50 μL/well of 1 M HCL, and then the absorption value at 450 nm was determined. The median inhibition concentration (IC50 value) was obtained by analyzing the data with Graphpad Prism software.

Molecule	EC50 (ng/ml), ADCC reporter assay (Jurkat-NFAT-CD16a luciferase) [1] [ng/mL]	EC50 [2] [nM]	IC50 [3] [nM]	IC50 [4] [nM]
Lanalumab (antibody)	56.5	3.58	310	–
B1	2.89	1.76	–	30.5
B2	4.55	1.55	–	30.5
B3	2.67	3.24	–	5.13
B4	5.09	1.55	–	40.5
